Measured values as given in PMC8222386.

Columns and labels:
[1] = biological target: iLight (evolved photosensory core module of Idiomarina sp. bacterial phytochrome IsPadC) (Idiomarina sp. A28L)
[2] = biological target: iLight (evolved photosensory core module of Idiomarina sp. bacterial phytochrome IsPadC) (Idiomarina sp. A28L); remark: listed apart in the source
[3] = biological target: iLight (evolved photosensory core module of Idiomarina sp. bacterial phytochrome IsPadC) (Idiomarina sp. A28L); remark: listed apart in the source
[4] = biological target: iLight (evolved photosensory core module of Idiomarina sp. bacterial phytochrome IsPadC) (Idiomarina sp. A28L); experiment: native gel or EMSA + SEC; Pr state: purified protein illuminated with 780/30 nm light (2 mW/cm2, 0.5 h) in 20 mM HEPES pH 7.7, 300 mM NaCl; native PAGE 4-20% gradient gel, 20 ug per lane, run in darkness, ZnCl2 staining; SEC on HiLoad 16/600 Superdex 200 in darkness, protein at 1.9 mg/ml
[5] = biological target: iLight (evolved photosensory core module of Idiomarina sp. bacterial phytochrome IsPadC) (Idiomarina sp. A28L); experiment: native gel or EMSA + SEC; Pfr state: purified protein illuminated with 660/15 nm light (2 mW/cm2, 0.5 h) in 20 mM HEPES pH 7.7, 300 mM NaCl; native PAGE 4-20% gradient gel, 20 ug per lane, run in darkness, ZnCl2 staining; SEC on HiLoad 16/600 Superdex 200 in darkness, protein at 1.9 mg/ml; step: dimers to tetramer
[6] = biological target: wild-type IsPadC-PCM (photosensory core module of Idiomarina sp. A28L phytochrome-activated diguanylyl cyclase) (Idiomarina sp. A28L); experiment: native gel or EMSA; native PAGE of Fig. 3f, 20 ug per lane, ZnCl2 staining for bound biliverdin; illumination state not told for this statement; step: monomers to dimer

| repression of the ColE-driven mCherry reporter in E. coli by LexA408-DBD-iLight-msfGFP, 660 nm light against darkness [1] [fold] | SEAP reporter production in HeLa cells with NLS-Gal4-DBD-iLight-VP16 after 48 h of 660 nm light against darkness, exogenous biliverdin from none (~20.5-fold) to 10 uM [2] [fold] | time course of SEAP reporter production in HeLa cells with NLS-Gal4-DBD-iLight-VP16, 660 nm light against darkness, 24 h (~19-fold) to 72 h [2] [fold] | RLuc8 reporter signal in livers of mice co-transfected with NLS-Gal4-DBD-iLight-VP16 and pG12-RLuc8, 24 h of 660 nm light against darkness [3] [fold] | stoichiometry N [4] | stoichiometry N [5] | stoichiometry N [6] | Substance |
| --- | --- | --- | --- | --- | --- | --- | --- |
| 115 | 65 to 70 | 70 | 6 | 2 | 4 |  | iLight (evolved photosensory core module of Idiomarina sp. bacterial phytochrome IsPadC) (domain or fragment) |
|  |  |  |  |  |  | 2 | wild-type IsPadC-PCM (photosensory core module of Idiomarina sp. A28L phytochrome-activated diguanylyl cyclase) (domain or fragment) |
